Legend:
[1] = target: 全长KIT ITD (Ba/F3稳定细胞系表面) (human) (UniProt P10721); assay: cell-based or functional assay
[2] = target: 全长KIT WT (Ba/F3稳定细胞系表面) (human) (UniProt P10721); assay: cell-based or functional assay
KIT WT D4-5蛋白 = target: T1, KIT WT D4-5蛋白 (human, UniProt P10721 309-519, limits assumed); assay: SPR, Biacore T200, 3G2 amine-coupled on CM5, KIT WT D4-5 as analyte (3.125-100 nM)
T1 construct: domain: 第4、5个Ig结构域 (D4-5); Expressed in HEK293 cells by BacMam; also called KIT WT的第4、5个结构域

KIT ITD D4-5蛋白 = target: T2, KIT ITD D4-5蛋白 (human, UniProt P10721 309-519); assay: SPR, Biacore T200, 3G2 amine-coupled on CM5, KIT ITD D4-5 as analyte (3.125-100 nM)
T2 chain: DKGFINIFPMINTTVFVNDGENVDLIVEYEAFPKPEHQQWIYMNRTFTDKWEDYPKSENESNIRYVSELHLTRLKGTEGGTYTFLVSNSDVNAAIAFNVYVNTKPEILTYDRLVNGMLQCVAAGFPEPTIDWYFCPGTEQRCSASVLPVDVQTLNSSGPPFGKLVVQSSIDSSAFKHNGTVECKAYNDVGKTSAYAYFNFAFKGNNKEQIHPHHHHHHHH

percent of KIT ITD Ba/F3 cells in early apoptosis at 10 nM 3G2 [1]: 41%
percent of KIT ITD Ba/F3 cells in late apoptosis at 10 nM 3G2 [1]: 14.5%
percent of KIT ITD Ba/F3 cells in programmed apoptosis at 10 nM 3G2 (Annexin V-FITC/7-AAD) [1]: 55.5%
percent apoptosis of KIT WT Ba/F3 cells with 3G2 [2]: 10.9%
Kd (KIT WT D4-5蛋白): 154 nM
Kd (KIT ITD D4-5蛋白): 17.1 nM
B1: 单克隆抗体3G2 (antibody, V domains shown)
VH: EVQLQESGPGLVKPSQSLSLTCTVAGYSITSDYAWNWIRQFPGNRLEWVGYISYSGSTSYNPSLKSRISITRDTSQNQFFLQLNSVTTEDTATYYCTRWRYRYTLAMDYWGQGTSVTVSS
VL: DIVLTQSPAITAASLGQKVTITCSASSSISYIHWYQQKSGTSPKPWIYEIYKLASGVPPRFSGSGSGTSYSLTISSMEAEDAAIYYCQQWNYPFTFGSGTKLEIKR
notes: also called 3G2抗体; not shown: hinge and Fc of the mouse hybridoma antibody
IC50 of cell survival (CCK8) of KIT ITD Ba/F3 cells [1]: 1.29 nM

Reference: patent CN108822212A (UNIV BEIJING, dated 2018)
